Measured values taken from paper PMC9251316, “Engineering the Active Site Pocket to Enhance the Catalytic Efficiency of a Novel Feruloyl Esterase Derived From Human Intestinal Bacteria Dorea formicigenerans” (Frontiers in Bioengineering and Biotechnology, 2022).
Substitutions are numbered along the chain they refer to. In names and notes the source's numbering stands.

B1: DfFAE (Dorea formicigenerans; N156A) (protein)
chain: MNQKKECMDVHVNGLKFHVQTFGSGVPIIMIMGLGAPGDKWKHNYELLSKWFWCIVPDNRGAGLSDKPEAESYTTEQMADDIIGIMDALDIKKAHVMGVSMGGAIAQQVALKVPDRVLSLILTSTFASVSPAFKKALNLICELKEDTDPAVLKQLALWMTYGQYTQIHHPEKIEKSIEEDAAYPYPMPVYAYKAQCGACLSHNTAGRLHELKMPVLIAAGAKDLFMNIEKTMELVHGIPQAEFYLAPEGGHVHQWEYPEPYDSVVVGFLMKHTN
notes: E. coli T7; trimeric by SEC (117 kDa)
B2: DfFAE (Dorea formicigenerans; V252A) (protein)
chain: B1 chain with A156N, V252A
notes: as for B1
B3: DfFAE (Dorea formicigenerans; W255A) (protein)
chain: B1 chain with A156N, W255A
notes: as for B1
B4: DfFAE (Dorea formicigenerans; P149A) (protein)
chain: B1 chain with P149A, A156N
notes: as for B1
B5: DfFAE (Dorea formicigenerans; P186A) (protein)
chain: B1 chain with A156N, P186A
notes: as for B1
B6: DfFAE (Dorea formicigenerans) (protein)
chain: B1 chain with A156N
notes: as for B1

Assays:
[1] = target: feruloyl esterase from Dorea formicigenerans (DfFAE) (Dorea formicigenerans); experiment: SEC; Superdex 200 Increase 10/300 GL; elution volume 12.9 ml; mass markers conalbumin 75 kDa and aldolase 158 kDa; apparent MW about 117 kDa
purified protein [2] = substrate: CC(=O)Oc1ccc([N+](=O)[O-])cc1; experiment: purified protein; assay type: biochemical, Dorea formicigenerans; conditions: 10 mM Tris-HCl pH 8.4, 2.5% Triton X-100, 40 °C
purified protein [3] = substrate: CCCC(=O)Oc1ccc([N+](=O)[O-])cc1; experiment: purified protein; assay type: biochemical, Dorea formicigenerans; conditions: 10 mM Tris-HCl pH 8.4, 2.5% Triton X-100, 40 °C
purified protein [4] = substrate: CCCCCCCC(=O)Oc1ccc([N+](=O)[O-])cc1; experiment: purified protein; assay type: biochemical, Dorea formicigenerans; conditions: 10 mM Tris-HCl pH 8.4, 2.5% Triton X-100, 40 °C

| Molecule | stoichiometry N [1] | Km (purified protein [2]) | kcat (purified protein [2]) | kcat/Km (purified protein [2]) | Km (purified protein [3]) | kcat (purified protein [3]) | kcat/Km (purified protein [3]) | Km (purified protein [4]) | kcat (purified protein [4]) | kcat/Km (purified protein [4]) |
| --- | --- | --- | --- | --- | --- | --- | --- | --- | --- | --- |
| feruloyl esterase from Dorea formicigenerans (DfFAE) (enzyme) | 3 | – | – | – | – | – | – | – | – | – |
| B1 | – | 644.7 ± 40.59 µM | 14.8 ± 0.333 s⁻¹ | 22940 ± 85.5 M⁻¹ s⁻¹ | 334.3 ± 43.69 µM | 2.85 ± 0.0997 s⁻¹ | 8520 ± 166 M⁻¹ s⁻¹ | – | – | – |
| B2 | – | 288.9 ± 53.8 µM | 12.8 ± 0.51 s⁻¹ | 44130 ± 226 M⁻¹ s⁻¹ | 83.61 ± 8.65 µM | 1.07 ± 0.0216 s⁻¹ | 12830 ± 124 M⁻¹ s⁻¹ | 99.87 ± 18.76 µM | 0.52 ± 0.018 s⁻¹ | 5200 ± 222 M⁻¹ s⁻¹ |
| B3 | – | 809.7 ± 182.4 µM | 12.1 ± 0.891 s⁻¹ | 14900 ± 299 M⁻¹ s⁻¹ | – | – | – | 178.2 ± 13.66 µM | 2.87 ± 0.0543 s⁻¹ | 16100 ± 95.6 M⁻¹ s⁻¹ |
| B4 | – | 803.7 ± 107.8 µM | 17.4 ± 0.809 s⁻¹ | 21690 ± 181 M⁻¹ s⁻¹ | – | – | – | 428.8 ± 35.31 µM | 1.08 ± 0.0243 s⁻¹ | 2510 ± 105 M⁻¹ s⁻¹ |
| B5 | – | 824 ± 242.1 µM | 11.3 ± 1.21 s⁻¹ | 13700 ± 400 M⁻¹ s⁻¹ | – | – | – | – | – | – |
| B6 | – | 572 ± 56.57 µM | 4.42 ± 0.165 s⁻¹ | 7730 ± 136 M⁻¹ s⁻¹ | 357.3 ± 68.62 µM | 0.798 ± 0.0436 s⁻¹ | 2230 ± 247 M⁻¹ s⁻¹ | 526.2 ± 73.57 µM | 0.186 ± 0.00865 s⁻¹ | 354 ± 186 M⁻¹ s⁻¹ |
